This is an account of results in PMC8010706.

The target in one assay is MBP-Sbh1 full length (UniProt P52870). Nature of the assay: pull-down (Ni-NTA capture after coexpression, Coomassie quantification). The settings on record: experiments performed 3 to 4 times; parent: 1.
Assay [1] addresses T1, MBP-Sbh1 full length, P52870.
T1 chain: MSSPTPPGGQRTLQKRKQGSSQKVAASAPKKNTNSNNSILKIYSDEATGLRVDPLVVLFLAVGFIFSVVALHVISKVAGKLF
The assay is described as above. The settings on record: chain shown with the change; capture assay repeated three times; parent: 1.

The target of assay [2] is hSgt2 M233D (Homo sapiens) (UniProt O43765). Nature of the assay: pull-down; capture assay: His-tagged Sgt2 construct coexpressed with MBP-Sbh1 in E. coli; lysate incubated in batch with Ni-NTA resin at 4 °C for 1 h, washed with 20 mM Tris, 150 mM NaCl, 25 mM imidazole, 10 mM BME, pH 7.5, eluted with 300 mM imidazole; Coomassie-stained gel, MBP-Sbh1/Sgt2 ratio normalised to wild type.

Residue numbers refer to the chain shown, from its start. Names and notes keep the numbering of the source.

In the case of “His-tagged hSgt2-C (hSgt2 213-313) (from UniProt O43765) H0A”, the ratio to parent with MBP-Sbh1 full length is 0.63.
The same measure, in the same setting: under “His-tagged ySgt2-C (ySgt2 222-346) (from UniProt Q12118) H5A” stands 0.32; under “His-tagged ySgt2-C (ySgt2 222-346) (from UniProt Q12118) H3A”, 0.19; under “His-tagged ySgt2-C (ySgt2 222-346) (from UniProt Q12118) H2A”, 0.1.
Still for that read-out and setting: next, “His-tagged ySgt2-C (ySgt2 222-346) (from UniProt Q12118) H4A”: 0.27; “His-tagged ySgt2-C (ySgt2 222-346) (from UniProt Q12118) H1A”: 0.03.
The same measure, in the same setting: under “His-tagged hSgt2-C (hSgt2 213-313) (from UniProt O43765) H1A” stands 0.21; under “His-tagged hSgt2-C (hSgt2 213-313) (from UniProt O43765) H4A”, 0.55.
With “His-tagged hSgt2-C (hSgt2 213-313) (from UniProt O43765) H2/3A”, the ratio to parent in the assay with MBP-Sbh1 full length came to 0.27.
The same measure, in the same setting: under “His-tagged hSgt2-C (hSgt2 213-313) (from UniProt O43765) H5A” stands 0.67.

B1: His-tagged ySgt2-C (ySgt2 222-346), Q12118 M315D (protein)
chain: SLNLEKTVPEQSRDADVDASQGASAGGLPDLGSLLGGGLGGLMNNPQLMQAAQKMMSNPGAMQNIQKMMQDPSIRQMAEGFASGGGTPNLSDLDNNPALRNMAGNLFGGAGAQSTDETPDNENKQ
As for B1, the ratio to parent in assay [1] was 0.34.

B2: His-tagged ySgt2-C (ySgt2 222-346), Q12118 M277D (protein)
chain: B1 chain with M56D, D94M
On to B2, for which, in assay [1], the ratio to parent turned out to be 0.14.

B3: His-tagged ySgt2-C (ySgt2 222-346), Q12118 I286D (protein)
chain: B1 chain with I65D, D94M
B3: in assay [1], the ratio to parent came to 0.13.

B4: His-tagged ySgt2-C (ySgt2 222-346), Q12118 L327D (protein)
chain: B1 chain with D94M, L106D
As to B4, the ratio to parent in assay [1] was determined as 0.4.

B5: His-tagged ySgt2-C (ySgt2 222-346), Q12118 L320D (protein)
chain: B1 chain with D94M, L99D
Consider B5, for which the ratio to parent in assay [1] was 0.23.

B6: His-tagged ySgt2-C (ySgt2 222-346), Q12118 M290D (protein)
chain: B1 chain with M69D, D94M
Take B6: the ratio to parent in assay [1] is 0.18.

B7: His-tagged ySgt2-C (ySgt2 222-346), Q12118 I295D (protein)
chain: B1 chain with I74D, D94M
Take B7: the ratio to parent in assay [1] is 0.21.

B8: His-tagged ySgt2-C (ySgt2 222-346), Q12118 M323D (protein)
chain: B1 chain with D94M, M102D
Regarding B8, the ratio to parent in assay [1] is 0.29.

B9: His-tagged hSgt2-C (hSgt2 213-313), O43765 L224D; F280D (protein)
chain: TGGVGSFDIAGDLNNPGFMSMASNLMNNPQIQQLMSGMISGGNNPLGTPGTSPSQNDLASLIQAGQQDAQQMQQQNPELIEQLRSQIRSRTPSASNDDQQE
For B9, in assay [1], the ratio to parent is 0.21.

B10: His-tagged hSgt2-C (hSgt2 213-313), O43765 L224D; L295D (protein)
chain: B9 chain with D68F, L83D
On to B10, for which, in assay [1], the ratio to parent is 0.16.

B11: His-tagged hSgt2-C (hSgt2 213-313), O43765 F280D (protein)
chain: B9 chain with D12L
Consider B11, for which, in assay [1], the ratio to parent was 0.69.

B12: His-tagged hSgt2-C (hSgt2 213-313), O43765 L295D (protein)
chain: B9 chain with D12L, D68F, L83D
Take B12: the ratio to parent in assay [1] was 0.86.

B13: His-tagged hSgt2-C (hSgt2 213-313), O43765 M233D; F280D (protein)
chain: B9 chain with D12L, M21D
Consider B13, for which the ratio to parent in assay [1] is 0.59.

B14: His-tagged hSgt2-C (hSgt2 213-313), O43765 L224D (protein)
chain: B9 chain with D68F
In the case of B14, the ratio to parent in assay [1] is 0.71.

B15: His-tagged hSgt2-C (hSgt2 213-313), O43765 M233D; L295D (protein)
chain: B9 chain with D12L, M21D, D68F, L83D
B15: the ratio to parent in assay [1] was found to be 0.44.

B16: His-tagged hSgt2-C (hSgt2 213-313), O43765 M247D (protein)
chain: B9 chain with D12L, M35D, D68F
B16: the ratio to parent in assay [1] amounted to 0.68.

B17: MBP-Sbh1 full length (natural protein)
chain: T1 chain
In the case of B17, the percent reduction of binding relative to wild type in assay [2] was determined as 36%.
